Entries after “also recorded” stand apart in the source; their conditions may differ.
How the values were obtained:
[1] = system: mouse hippocampal primary culture neurons; settings: 24, 36 and 48 hours after transfection; mutants compared to wild-type EFHC1
Procedure: Mouse hippocampal neurons primary culture. Hippocampal neurons were isolated from embryonic day 16 mice and plated at 1-2×10^5 cells per well in 24 well plate containing glass coverslips coated with poly-1-lysine and grown in serum-free NEUROBASAL™ media supplemented with B27, 0.5 mM L-glutamine (Invitrogen).
Transfection and immunostaining of mouse hippocampal neurons. […] Cultures were fixed with 4% paraformaldehyde in PBS 16 and 48 hours after transfection, permeabilized with 0.3% Triton X-100, blocked in 3% normal goat serum in PBS, and treated with mouse monoclonal anti-MAP-2 antibody (1:500; Sigma) and Alexa fluor 594 goat anti-mouse IgG antibody (1:1000; Molecular Probes).
TUNEL assay. […] Forty-eight hours after transfection, neuronal apoptosis was detected using DeadEndTM Fluorometric TUNEL System (Promega). Nuclei were visualized with Hoescht 33342 (Molecular Probes). These cells were also stained with anti-Myc antibody (1:200; Cell Signaling) and Alexa fluor 594 goat anti-rabbit IgG antibody (1:1000). All experiments were carried out in duplicate wells and at least repeated three times. Neuron cells were observed on a confocal microscope (OLYMPUS FLUOVIEW) following 48 hours post transfection.
Cell death analyses with EFHC1 mutants. […] Surviving cell numbers were scored by counting GFP fluorescent-positive cells that attached to dishes. At each counting, detached cells (dead cells) were carefully removed by changing culture medium. Morphologies of cells (cell shape, length and number of neurites, shrinkage, etc.) were not considered for the counting. Surviving cell numbers were scored at 24, 36, and 48 hours after transfection. Analyses were repeated twice by using two independently prepared expression construct DNAs. In total, neurons in seven wells of 24 well plates were counted for each transfection and time point. Experiments were performed in a blinded fashion.

[2] = biological target: T1, PQ type VDCC (Cav2.1) (Oryctolagus cuniculus, UniProt P27884); test: Patch-clamp analyses of HEK cell line with P/Q type VDCCs and wild type EFHC1 or mutant constructs; format: cell-based; settings: for Activation V0.5 (mV): half-maximal voltage of activation; for Activation V0.5 (mV) / Inactivation V0.5 (mV) / Activation k (mV) / Inactivation K (mV): mean ± SEM; for Inactivation V0.5 (mV): half-maximal voltage of inactivation; for inactivation speed of P/Q type VDCC (decelerating effect on calcium inactivation): patch-clamp; for Activation k (mV) / Inactivation K (mV): slope factor
T1 construct: expressed in transfected cells; host or cells: HEK cell line
T1 sequence (P27884 whole entry): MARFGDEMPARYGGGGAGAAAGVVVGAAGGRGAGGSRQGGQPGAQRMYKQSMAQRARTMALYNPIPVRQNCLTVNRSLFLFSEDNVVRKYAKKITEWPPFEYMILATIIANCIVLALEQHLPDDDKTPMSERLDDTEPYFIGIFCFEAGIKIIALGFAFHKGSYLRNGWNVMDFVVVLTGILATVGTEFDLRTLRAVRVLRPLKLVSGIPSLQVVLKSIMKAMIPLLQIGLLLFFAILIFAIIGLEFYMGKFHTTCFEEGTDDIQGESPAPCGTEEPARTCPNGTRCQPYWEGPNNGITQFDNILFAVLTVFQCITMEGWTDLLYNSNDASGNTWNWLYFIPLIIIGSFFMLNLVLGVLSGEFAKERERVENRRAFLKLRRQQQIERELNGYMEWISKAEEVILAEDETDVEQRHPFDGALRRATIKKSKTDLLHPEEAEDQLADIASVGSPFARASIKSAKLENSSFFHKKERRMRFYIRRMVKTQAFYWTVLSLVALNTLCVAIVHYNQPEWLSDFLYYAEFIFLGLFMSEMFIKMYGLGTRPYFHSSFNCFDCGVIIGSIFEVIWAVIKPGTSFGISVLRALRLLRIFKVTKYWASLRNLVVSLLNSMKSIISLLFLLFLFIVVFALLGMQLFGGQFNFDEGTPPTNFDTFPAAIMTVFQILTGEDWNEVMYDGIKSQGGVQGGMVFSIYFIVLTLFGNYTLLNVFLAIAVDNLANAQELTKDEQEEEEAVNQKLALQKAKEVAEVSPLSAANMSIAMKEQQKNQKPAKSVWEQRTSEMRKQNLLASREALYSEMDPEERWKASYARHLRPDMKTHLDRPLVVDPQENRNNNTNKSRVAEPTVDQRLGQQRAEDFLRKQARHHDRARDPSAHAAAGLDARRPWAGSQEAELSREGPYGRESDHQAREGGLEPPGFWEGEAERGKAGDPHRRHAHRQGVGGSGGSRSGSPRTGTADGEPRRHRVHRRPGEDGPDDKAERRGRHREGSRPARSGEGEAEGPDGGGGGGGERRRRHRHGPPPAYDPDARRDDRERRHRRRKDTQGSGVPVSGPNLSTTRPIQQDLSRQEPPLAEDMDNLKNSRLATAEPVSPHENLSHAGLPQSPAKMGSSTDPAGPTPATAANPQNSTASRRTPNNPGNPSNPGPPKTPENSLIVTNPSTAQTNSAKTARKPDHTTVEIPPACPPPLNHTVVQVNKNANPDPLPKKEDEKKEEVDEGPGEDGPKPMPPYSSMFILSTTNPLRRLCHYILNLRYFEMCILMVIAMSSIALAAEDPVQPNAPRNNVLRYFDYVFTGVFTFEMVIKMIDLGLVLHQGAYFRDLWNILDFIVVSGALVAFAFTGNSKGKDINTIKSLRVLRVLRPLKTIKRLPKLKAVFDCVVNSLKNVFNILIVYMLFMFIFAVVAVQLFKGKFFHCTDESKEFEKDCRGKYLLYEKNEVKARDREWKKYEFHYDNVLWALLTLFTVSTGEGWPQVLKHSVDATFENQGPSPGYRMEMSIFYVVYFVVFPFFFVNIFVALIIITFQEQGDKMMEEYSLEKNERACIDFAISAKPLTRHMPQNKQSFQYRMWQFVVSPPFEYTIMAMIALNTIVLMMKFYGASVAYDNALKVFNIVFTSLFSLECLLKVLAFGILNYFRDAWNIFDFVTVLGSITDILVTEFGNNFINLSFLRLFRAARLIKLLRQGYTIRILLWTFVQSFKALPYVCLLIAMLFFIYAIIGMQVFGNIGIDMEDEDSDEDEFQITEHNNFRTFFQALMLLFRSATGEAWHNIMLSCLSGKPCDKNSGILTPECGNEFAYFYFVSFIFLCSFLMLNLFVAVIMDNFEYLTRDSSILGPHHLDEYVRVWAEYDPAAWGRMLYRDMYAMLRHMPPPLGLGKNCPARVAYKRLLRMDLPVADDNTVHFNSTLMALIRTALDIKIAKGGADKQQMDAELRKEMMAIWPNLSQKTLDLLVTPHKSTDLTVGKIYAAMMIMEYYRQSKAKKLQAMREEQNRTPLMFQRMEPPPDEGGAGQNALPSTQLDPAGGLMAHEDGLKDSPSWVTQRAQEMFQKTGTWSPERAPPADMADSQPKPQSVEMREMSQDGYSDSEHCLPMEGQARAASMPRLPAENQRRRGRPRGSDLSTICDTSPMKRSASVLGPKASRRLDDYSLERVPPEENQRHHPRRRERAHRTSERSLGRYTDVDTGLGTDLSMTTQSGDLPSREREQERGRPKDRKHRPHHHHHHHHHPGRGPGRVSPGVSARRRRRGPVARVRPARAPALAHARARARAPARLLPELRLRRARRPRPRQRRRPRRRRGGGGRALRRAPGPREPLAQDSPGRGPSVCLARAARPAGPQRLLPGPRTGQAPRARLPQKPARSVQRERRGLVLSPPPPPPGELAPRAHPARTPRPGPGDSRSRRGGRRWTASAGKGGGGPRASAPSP
T1 sequence (P13806 27-1106 partner): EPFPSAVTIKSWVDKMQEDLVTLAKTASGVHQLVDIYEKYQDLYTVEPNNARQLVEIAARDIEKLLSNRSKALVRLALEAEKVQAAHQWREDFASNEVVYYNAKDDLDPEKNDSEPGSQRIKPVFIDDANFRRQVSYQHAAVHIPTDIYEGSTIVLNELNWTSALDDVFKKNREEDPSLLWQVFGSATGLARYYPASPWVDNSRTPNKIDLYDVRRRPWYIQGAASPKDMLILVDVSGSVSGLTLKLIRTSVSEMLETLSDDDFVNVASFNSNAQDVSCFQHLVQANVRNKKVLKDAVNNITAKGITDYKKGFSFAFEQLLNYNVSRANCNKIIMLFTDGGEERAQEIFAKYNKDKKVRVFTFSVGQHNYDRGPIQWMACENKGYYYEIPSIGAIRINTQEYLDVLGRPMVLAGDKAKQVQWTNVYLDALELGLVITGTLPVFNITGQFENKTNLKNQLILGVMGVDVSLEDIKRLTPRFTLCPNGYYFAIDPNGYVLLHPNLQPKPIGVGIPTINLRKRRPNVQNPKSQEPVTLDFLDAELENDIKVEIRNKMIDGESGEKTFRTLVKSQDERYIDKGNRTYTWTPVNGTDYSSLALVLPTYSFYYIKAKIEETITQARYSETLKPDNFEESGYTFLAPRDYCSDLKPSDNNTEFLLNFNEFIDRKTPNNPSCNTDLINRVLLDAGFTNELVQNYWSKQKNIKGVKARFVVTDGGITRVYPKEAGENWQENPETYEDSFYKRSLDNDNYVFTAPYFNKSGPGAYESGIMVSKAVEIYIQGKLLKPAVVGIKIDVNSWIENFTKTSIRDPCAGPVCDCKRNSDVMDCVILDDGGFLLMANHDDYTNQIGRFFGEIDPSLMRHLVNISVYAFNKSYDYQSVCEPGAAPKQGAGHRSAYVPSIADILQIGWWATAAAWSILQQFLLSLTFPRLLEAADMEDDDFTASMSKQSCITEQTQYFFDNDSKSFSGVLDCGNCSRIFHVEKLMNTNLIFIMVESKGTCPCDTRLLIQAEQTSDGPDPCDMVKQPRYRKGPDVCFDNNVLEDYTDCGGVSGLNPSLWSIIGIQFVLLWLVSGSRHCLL
T1 sequence (P19517 whole entry partner): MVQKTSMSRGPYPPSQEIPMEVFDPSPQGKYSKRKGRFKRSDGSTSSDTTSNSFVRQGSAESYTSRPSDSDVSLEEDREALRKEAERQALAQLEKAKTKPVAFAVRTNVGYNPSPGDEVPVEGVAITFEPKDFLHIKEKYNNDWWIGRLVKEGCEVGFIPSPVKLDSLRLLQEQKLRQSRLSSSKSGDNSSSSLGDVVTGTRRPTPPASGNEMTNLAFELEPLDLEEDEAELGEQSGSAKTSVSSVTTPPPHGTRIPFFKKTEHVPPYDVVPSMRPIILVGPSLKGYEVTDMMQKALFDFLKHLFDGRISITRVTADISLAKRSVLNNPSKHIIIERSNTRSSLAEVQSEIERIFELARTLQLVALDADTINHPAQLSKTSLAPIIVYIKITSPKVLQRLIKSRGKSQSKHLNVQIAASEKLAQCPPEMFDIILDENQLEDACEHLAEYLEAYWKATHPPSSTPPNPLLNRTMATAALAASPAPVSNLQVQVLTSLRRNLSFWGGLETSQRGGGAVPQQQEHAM

Row | Molecule | cell-death effect (GFP-positive surviving cell numbers) [1] | Ca2+ current density of P/Q-type VDCC (Cav2.1) ([2]; cells co-transfected with P/Q-type VDCC and EFHC1 constructs) | Activation V0.5 (mV) [2] | Inactivation V0.5 (mV) [2] | inactivation speed of P/Q type VDCC (decelerating effect on calcium inactivation) [2] | Activation k (mV) [2] | Inactivation K (mV) [2]
1 | P77T/R221H: EFHC1 protein with the double mutation P77T and R221H (protein) MVSNPVHGLPFLPGTSFKDSTKTAFHRSQTLSYRNGYAIVRRPTVGIGGDRLQFNQLSQAELDELASKAPVLTYGQTKQAPPADFIPAHVAFDKKVLKFDAYFQEDVPMSTEEQYRIRQVNIYYYLEDDSMSVIEPVVENSGILQGKLIKRQRLAKNDRGDHYHWKDLNRGINITIYGKTFRVVDCDQFTQVFLESQGIELNPPEKMALDPYTELRKQPLHKYVTPSDFDQLKQFLTFDKQVLRFYAIWDDTDSMYGECRTYIIHYYLMDDTVEIREVHERNDGRDPFPLLMNRQRVPKVLVENAKNFPQCVLEISDQEVLEWYTAKDFIVGKSLTILGRTFFIYDCDPFTRRYYKEKFGITDLPRIDVSKREPPPVKQELPPYNGFGLVEDSAQNCFTLIPKAPKKDVIKMLVNDNKVLRYLAVLESPIPEDKDRRFVFSYFLATDMISIFEPPVRNSGIIGGKYLGRTKVVKPYSTVDNPVYYGPSDFFIGAVIEVFGHRFIILDTDEYVLKYMESNAAQYSPEALASIQNHVRKREAPAPEAESKQTEKDPGVQELEALIDTIQKQLKDHSCKDNIREAFQIYDKEASGYVDRDMFFKICESLNVPVDDSLVKELIRMCSHGEGKINYYNFVRAFSN | significantly reduced; also recorded: significantly reversed | – | – | – | – | – | –
2 | R182H: EFHC1 protein with coding polymorphism R182H (Arg182His) (protein) MVSNPVHGLPFLPGTSFKDSTKTAFHRSQTLSYRNGYAIVRRPTVGIGGDRLQFNQLSQAELDELASKAPVLTYGQPKQAPPADFIPAHVAFDKKVLKFDAYFQEDVPMSTEEQYRIRQVNIYYYLEDDSMSVIEPVVENSGILQGKLIKRQRLAKNDRGDHYHWKDLNRGINITIYGKTFHVVDCDQFTQVFLESQGIELNPPEKMALDPYTELRKQPLRKYVTPSDFDQLKQFLTFDKQVLRFYAIWDDTDSMYGECRTYIIHYYLMDDTVEIREVHERNDGRDPFPLLMNRQRVPKVLVENAKNFPQCVLEISDQEVLEWYTAKDFIVGKSLTILGRTFFIYDCDPFTRRYYKEKFGITDLPRIDVSKREPPPVKQELPPYNGFGLVEDSAQNCFTLIPKAPKKDVIKMLVNDNKVLRYLAVLESPIPEDKDRRFVFSYFLATDMISIFEPPVRNSGIIGGKYLGRTKVVKPYSTVDNPVYYGPSDFFIGAVIEVFGHRFIILDTDEYVLKYMESNAAQYSPEALASIQNHVRKREAPAPEAESKQTEKDPGVQELEALIDTIQKQLKDHSCKDNIREAFQIYDKEASGYVDRDMFFKICESLNVPVDDSLVKELIRMCSHGEGKINYYNFVRAFSN | largely maintained | – | – | – | – | – | –
3 | 1619L: EFHC1 protein with coding polymorphism I619L (protein, UniProt Q5JVL4 1-640, looked up, variant I619L) EF-hand domain-containing …: MVSNPVHGLPFLPGTSFKDSTKTAFHRSQTLSYRNGYAIVRRPTVGIGGDRLQFNQLSQAELDELASKAPVLTYGQPKQAPPADFIPAHVAFDKKVLKFDAYFQEDVPMSTEEQYRIRQVNIYYYLEDDSMSVIEPVVENSGILQGKLIKRQRLAKNDRGDHYHWKDLNRGINITIYGKTFRVVDCDQFTQVFLESQGIELNPPEKMALDPYTELRKQPLRKYVTPSDFDQLKQFLTFDKQVLRFYAIWDDTDSMYGECRTYIIHYYLMDDTVEIREVHERNDGRDPFPLLMNRQRVPKVLVENAKNFPQCVLEISDQEVLEWYTAKDFIVGKSLTILGRTFFIYDCDPFTRRYYKEKFGITDLPRIDVSKREPPPVKQELPPYNGFGLVEDSAQNCFALIPKAPKKDVIKMLVNDNKVLRYLAVLESPIPEDKDRRFVFSYFLATDMISIFEPPVRNSGIIGGKYLGRTKVVKPYSTVDNPVYYGPSDFFIGAVIEVFGHRFIILDTDEYVLKYMESNAAQYSPEALASIQNHVRKREAPAPEAESKQTEKDPGVQELEALIDTIQKQLKDHSCKDNIREAFQIYDKEASGYVDRDMFFKICESLNVPVDDSLVKELLRMCSHGEGKINYYNFVRAFSN | largely maintained | – | – | – | – | – | –
4 | P77T: EFHC1 protein with JME missense mutation P77T (Pro77Thr) (protein) MVSNPVHGLPFLPGTSFKDSTKTAFHRSQTLSYRNGYAIVRRPTVGIGGDRLQFNQLSQAELDELASKAPVLTYGQTKQAPPADFIPAHVAFDKKVLKFDAYFQEDVPMSTEEQYRIRQVNIYYYLEDDSMSVIEPVVENSGILQGKLIKRQRLAKNDRGDHYHWKDLNRGINITIYGKTFRVVDCDQFTQVFLESQGIELNPPEKMALDPYTELRKQPLRKYVTPSDFDQLKQFLTFDKQVLRFYAIWDDTDSMYGECRTYIIHYYLMDDTVEIREVHERNDGRDPFPLLMNRQRVPKVLVENAKNFPQCVLEISDQEVLEWYTAKDFIVGKSLTILGRTFFIYDCDPFTRRYYKEKFGITDLPRIDVSKREPPPVKQELPPYNGFGLVEDSAQNCFTLIPKAPKKDVIKMLVNDNKVLRYLAVLESPIPEDKDRRFVFSYFLATDMISIFEPPVRNSGIIGGKYLGRTKVVKPYSTVDNPVYYGPSDFFIGAVIEVFGHRFIILDTDEYVLKYMESNAAQYSPEALASIQNHVRKREAPAPEAESKQTEKDPGVQELEALIDTIQKQLKDHSCKDNIREAFQIYDKEASGYVDRDMFFKICESLNVPVDDSLVKELIRMCSHGEGKINYYNFVRAFSN | significantly reversed | moderately increased | 23.0 ± 3.2 mV | −15.8 ± 1.4 mV | abolished the decelerating effect | 8.87 ± 1.67 mV | 6.59 ± 0.44 mV
5 | R221H: EFHC1 protein with JME missense mutation R221H (Arg221His) (protein) MVSNPVHGLPFLPGTSFKDSTKTAFHRSQTLSYRNGYAIVRRPTVGIGGDRLQFNQLSQAELDELASKAPVLTYGQPKQAPPADFIPAHVAFDKKVLKFDAYFQEDVPMSTEEQYRIRQVNIYYYLEDDSMSVIEPVVENSGILQGKLIKRQRLAKNDRGDHYHWKDLNRGINITIYGKTFRVVDCDQFTQVFLESQGIELNPPEKMALDPYTELRKQPLHKYVTPSDFDQLKQFLTFDKQVLRFYAIWDDTDSMYGECRTYIIHYYLMDDTVEIREVHERNDGRDPFPLLMNRQRVPKVLVENAKNFPQCVLEISDQEVLEWYTAKDFIVGKSLTILGRTFFIYDCDPFTRRYYKEKFGITDLPRIDVSKREPPPVKQELPPYNGFGLVEDSAQNCFTLIPKAPKKDVIKMLVNDNKVLRYLAVLESPIPEDKDRRFVFSYFLATDMISIFEPPVRNSGIIGGKYLGRTKVVKPYSTVDNPVYYGPSDFFIGAVIEVFGHRFIILDTDEYVLKYMESNAAQYSPEALASIQNHVRKREAPAPEAESKQTEKDPGVQELEALIDTIQKQLKDHSCKDNIREAFQIYDKEASGYVDRDMFFKICESLNVPVDDSLVKELIRMCSHGEGKINYYNFVRAFSN | significantly reversed | – | 17.7 ± 1.9 mV | −17.0 ± 2.5 mV | abolished the decelerating effect | 7.08 ± 0.81 mV | 7.00 ± 0.27 mV
6 | R159W: EFHC1 protein with coding polymorphism R159W (Arg159Trp) (protein) MVSNPVHGLPFLPGTSFKDSTKTAFHRSQTLSYRNGYAIVRRPTVGIGGDRLQFNQLSQAELDELASKAPVLTYGQPKQAPPADFIPAHVAFDKKVLKFDAYFQEDVPMSTEEQYRIRQVNIYYYLEDDSMSVIEPVVENSGILQGKLIKRQRLAKNDWGDHYHWKDLNRGINITIYGKTFRVVDCDQFTQVFLESQGIELNPPEKMALDPYTELRKQPLRKYVTPSDFDQLKQFLTFDKQVLRFYAIWDDTDSMYGECRTYIIHYYLMDDTVEIREVHERNDGRDPFPLLMNRQRVPKVLVENAKNFPQCVLEISDQEVLEWYTAKDFIVGKSLTILGRTFFIYDCDPFTRRYYKEKFGITDLPRIDVSKREPPPVKQELPPYNGFGLVEDSAQNCFTLIPKAPKKDVIKMLVNDNKVLRYLAVLESPIPEDKDRRFVFSYFLATDMISIFEPPVRNSGIIGGKYLGRTKVVKPYSTVDNPVYYGPSDFFIGAVIEVFGHRFIILDTDEYVLKYMESNAAQYSPEALASIQNHVRKREAPAPEAESKQTEKDPGVQELEALIDTIQKQLKDHSCKDNIREAFQIYDKEASGYVDRDMFFKICESLNVPVDDSLVKELIRMCSHGEGKINYYNFVRAFSN | largely maintained | – | – | – | – | – | –
7 | D210N: EFHC1 protein with JME missense mutation D210N (Asp210Asn) (protein) MVSNPVHGLPFLPGTSFKDSTKTAFHRSQTLSYRNGYAIVRRPTVGIGGDRLQFNQLSQAELDELASKAPVLTYGQPKQAPPADFIPAHVAFDKKVLKFDAYFQEDVPMSTEEQYRIRQVNIYYYLEDDSMSVIEPVVENSGILQGKLIKRQRLAKNDRGDHYHWKDLNRGINITIYGKTFRVVDCDQFTQVFLESQGIELNPPEKMALNPYTELRKQPLRKYVTPSDFDQLKQFLTFDKQVLRFYAIWDDTDSMYGECRTYIIHYYLMDDTVEIREVHERNDGRDPFPLLMNRQRVPKVLVENAKNFPQCVLEISDQEVLEWYTAKDFIVGKSLTILGRTFFIYDCDPFTRRYYKEKFGITDLPRIDVSKREPPPVKQELPPYNGFGLVEDSAQNCFTLIPKAPKKDVIKMLVNDNKVLRYLAVLESPIPEDKDRRFVFSYFLATDMISIFEPPVRNSGIIGGKYLGRTKVVKPYSTVDNPVYYGPSDFFIGAVIEVFGHRFIILDTDEYVLKYMESNAAQYSPEALASIQNHVRKREAPAPEAESKQTEKDPGVQELEALIDTIQKQLKDHSCKDNIREAFQIYDKEASGYVDRDMFFKICESLNVPVDDSLVKELIRMCSHGEGKINYYNFVRAFSN | significantly reversed | – | 24.1 ± 1.4 mV | −9.4 ± 1.4 mV | did not significantly affect | 9.08 ± 0.71 mV | 6.44 ± 0.33 mV

Reference: patent US11932908B2, “Compositions and methods for diagnosis and treatment of epilepsy” (THE REGENTS OF THE UNIVERSITY OF CALIFORNIA, priority 2004, dated 2024)
